Measured values as given in patent publication US20250304712A1 (published 2025).

T1: recombinant LY6K protein with histidine and Strep tags (human, UniProt Q17RY6 18-138)
T1 chain: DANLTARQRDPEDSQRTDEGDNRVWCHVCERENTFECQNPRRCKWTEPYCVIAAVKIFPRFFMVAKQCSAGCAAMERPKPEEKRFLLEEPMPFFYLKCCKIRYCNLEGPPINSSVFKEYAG


Target: T1, recombinant LY6K protein with histidine …
Experiment: QCM

Binder	Kd [nM]
murine anti-LY6K antibody G57 (antibody, V domains shown) VH: EVQLVESGGDLVKPGGSLKLSCAASGFTFNSYGMSWVRQTPDKRLEWVATISSGGTYTYYSDSVKGRFTISRDNAKNILYLHMSSLKSEDTAMYYCARHDWDFFDYWGQGTTLTVSS VL: DVVMTQTPLSLPVSLGDQASISCRSSQSLVHTDGDTYLNWYLQKPGQSPKLLIYKVSNRFSGVPDRFSGSGSGTDFTLKIRRVEAEDLGVYFCSQNTHVYTFGGGTKLE	1.34
murine anti-LY6K antibody 28C1 (antibody, V domains shown) VH: QIQLVQSGPELKKPGETVKISCKTSGYTFTNFAMNWVKQTPGKGLRYMGWINTNTGEPTYVEEFKGRFAFSLETSASTAYLQISNLKNEDTATYFCTREWRRSYYFDYWGQGTSLTVSS VL: DIQMTQTPLSLPVSLGDQASISCRSSQTILHSNGNTYLEWYLQKPGQSLKLLIYKVSNRLSGVPDRFSGSGSGTDFTLKISRVEAEDLGVYYCFQGSHDPFTFGSGTKLE	0.612
murine anti-LY6K antibody 22C-G8 (antibody, V domains shown) VH: QVQLQQPGAELAKPGASVKLSCKTSGYTFTSYWMHWVKQRPGQGFEWIGEINPSNGGANYNEKFKRKATLTVDKSSSTAYMQLRSLTSEDSAVYYCTMGGNFFFAYWGQGTSVTVSS VL: not shown	0.243
